# Reference: article PMC9798004 (Frontiers in Psychiatry, 2022)
# T1: RXFP3 (Homo sapiens, UniProt Q9NSD7)
# T1 construct: purchased Eurofins DiscoverX (PathHunter gpcrMAX)
# T1 sequence (Q9NSD7 1-469): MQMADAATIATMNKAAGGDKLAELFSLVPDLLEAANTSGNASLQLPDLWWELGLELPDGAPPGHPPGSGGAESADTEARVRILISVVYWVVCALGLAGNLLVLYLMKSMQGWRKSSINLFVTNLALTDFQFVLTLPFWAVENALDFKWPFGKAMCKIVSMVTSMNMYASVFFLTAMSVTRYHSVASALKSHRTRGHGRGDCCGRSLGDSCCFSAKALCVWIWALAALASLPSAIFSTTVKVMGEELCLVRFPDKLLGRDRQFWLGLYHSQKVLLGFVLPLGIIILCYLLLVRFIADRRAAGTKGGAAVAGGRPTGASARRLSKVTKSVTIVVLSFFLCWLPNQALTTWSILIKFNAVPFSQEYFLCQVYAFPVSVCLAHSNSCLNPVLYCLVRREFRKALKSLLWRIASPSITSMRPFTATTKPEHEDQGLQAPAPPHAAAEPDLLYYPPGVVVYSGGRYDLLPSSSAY
# T2: CALCR-RAMP3 (Homo sapiens, UniProt O60896+P30988)
# T2 construct: purchased Eurofins DiscoverX (PathHunter gpcrMAX)
# T2 sequence (P30988 25-474): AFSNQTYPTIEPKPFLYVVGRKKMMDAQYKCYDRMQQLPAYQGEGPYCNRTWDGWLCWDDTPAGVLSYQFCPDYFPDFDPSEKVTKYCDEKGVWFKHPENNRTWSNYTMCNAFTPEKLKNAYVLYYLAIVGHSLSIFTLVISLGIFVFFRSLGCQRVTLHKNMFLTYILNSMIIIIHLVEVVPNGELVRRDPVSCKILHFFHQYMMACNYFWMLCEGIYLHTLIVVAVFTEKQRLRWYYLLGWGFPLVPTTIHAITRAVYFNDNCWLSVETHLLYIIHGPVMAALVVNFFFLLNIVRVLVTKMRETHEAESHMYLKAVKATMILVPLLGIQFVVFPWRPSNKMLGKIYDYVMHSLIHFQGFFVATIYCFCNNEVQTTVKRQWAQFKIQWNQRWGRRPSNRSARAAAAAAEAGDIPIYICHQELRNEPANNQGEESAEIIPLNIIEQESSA
# T2 sequence (O60896 24-148 partner): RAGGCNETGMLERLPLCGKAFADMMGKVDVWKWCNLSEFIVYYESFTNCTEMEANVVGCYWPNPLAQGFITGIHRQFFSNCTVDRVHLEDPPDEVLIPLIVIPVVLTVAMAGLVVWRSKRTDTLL
# T3: CALCR (Homo sapiens, UniProt P30988)
# T3 construct: purchased Eurofins DiscoverX (PathHunter gpcrMAX)
# T3 sequence (P30988 25-474): T2 sequence (P30988 25-474)
# T4: TACR3 (Homo sapiens, UniProt P29371)
# T4 construct: purchased Eurofins DiscoverX (PathHunter gpcrMAX)
# T4 sequence (P29371 1-465): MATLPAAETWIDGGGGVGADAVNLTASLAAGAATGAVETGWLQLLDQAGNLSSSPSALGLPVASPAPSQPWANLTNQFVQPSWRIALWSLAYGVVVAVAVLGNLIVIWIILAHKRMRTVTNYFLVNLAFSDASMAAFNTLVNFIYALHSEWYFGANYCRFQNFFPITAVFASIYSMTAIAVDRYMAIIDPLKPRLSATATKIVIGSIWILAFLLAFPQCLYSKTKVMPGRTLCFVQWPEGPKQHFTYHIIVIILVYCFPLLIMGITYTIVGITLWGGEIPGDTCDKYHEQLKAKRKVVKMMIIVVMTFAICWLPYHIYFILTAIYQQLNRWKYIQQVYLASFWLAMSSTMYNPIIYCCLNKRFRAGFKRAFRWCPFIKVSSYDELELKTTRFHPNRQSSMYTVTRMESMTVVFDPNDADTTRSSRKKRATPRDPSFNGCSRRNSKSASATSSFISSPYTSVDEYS
# T5: PRLHR (Homo sapiens, UniProt P49683)
# T5 construct: purchased Eurofins DiscoverX (PathHunter gpcrMAX)
# T5 sequence (P49683 1-370): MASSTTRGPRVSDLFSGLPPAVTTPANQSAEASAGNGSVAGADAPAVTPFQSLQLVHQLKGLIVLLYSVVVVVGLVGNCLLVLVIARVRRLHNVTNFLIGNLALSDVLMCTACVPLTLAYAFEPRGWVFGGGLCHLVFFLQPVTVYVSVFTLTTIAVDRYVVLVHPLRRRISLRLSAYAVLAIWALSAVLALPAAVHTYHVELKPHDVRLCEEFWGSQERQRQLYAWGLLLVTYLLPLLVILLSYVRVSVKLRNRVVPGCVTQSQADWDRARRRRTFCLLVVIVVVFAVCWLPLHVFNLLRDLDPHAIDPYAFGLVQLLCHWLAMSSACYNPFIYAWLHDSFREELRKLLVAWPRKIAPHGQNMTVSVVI
# T6: C5AR1 (Homo sapiens, UniProt P21730)
# T6 construct: purchased Eurofins DiscoverX (PathHunter gpcrMAX)
# T6 sequence (P21730 1-350): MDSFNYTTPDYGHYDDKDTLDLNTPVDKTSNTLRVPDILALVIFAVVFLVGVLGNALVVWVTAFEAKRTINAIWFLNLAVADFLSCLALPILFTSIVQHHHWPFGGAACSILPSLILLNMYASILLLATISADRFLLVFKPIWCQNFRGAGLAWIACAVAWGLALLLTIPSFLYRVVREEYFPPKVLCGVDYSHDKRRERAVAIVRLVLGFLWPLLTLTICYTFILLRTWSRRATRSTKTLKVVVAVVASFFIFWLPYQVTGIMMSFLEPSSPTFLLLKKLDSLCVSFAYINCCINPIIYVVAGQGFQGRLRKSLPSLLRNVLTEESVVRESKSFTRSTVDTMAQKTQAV
# B1: Complement C5a: control agonist (protein, UniProt P01031 678-751, looked up)
# C5a anaphylatoxin: TLQKKIEEIAAKYKHSVVKKCCYDGACVNNDETCEQRAARISLGPRCIKAFTECCVVASQLRANISHKDMQLGR
# modifications: C5a anaphylatoxin
# notes: control agonist
# B2: EG VEGF: control agonist for PROKR1 and PROKR2 (protein, UniProt P58294 20-105, looked up)
# Prokineticin-1: AVITGACERDVQCGAGTCCAISLWLRGLRMCTPLGREGEECHPGSHKVPFFRKRKHHTCPCLPNLLCSRFPDGRYRCSMDLKNINF
# Experiments:
# Experiment in all cases: PathHunter β-arrestin assay
# Format in all cases: cell-based
# [1] = target: T1, RXFP3; settings: screen, control agonist; CHO, 37C, 2HR
# [2] = target: T7, TBXA2R (Homo sapiens, UniProt P21731); settings: screen, control agonist; U2OS, 37C, 2HR
# T7 construct: purchased Eurofins DiscoverX (PathHunter gpcrMAX)
# [3] = target: T8, PTHR2 (Homo sapiens, UniProt P49190); settings: screen, control agonist; CHO, 37C, 2HR
# T8 construct: purchased Eurofins DiscoverX (PathHunter gpcrMAX)
# [4] = target: P2RY6 (Homo sapiens, UniProt Q15077); settings: screen, control agonist; CHO, 37C, 2HR
# Procedure: Follow up experiments were prioritized based on the difference between S/N and CoV. Targets with a >5-fold difference between S/N and CoV were investigated for their potential contribution to the AMB-FUBINACA toxidrome with 10-point concentration-response curves generated in technical replicate (range 1.5–30 μM) using the EC80 of the relevant agonist, where applicable in antagonist mode. Simultaneous agonist and antagonist curves were run in parallel to ensure reliability of the assay (see Supplementary Table 2), with both RC50 and signal to background aligning with historical averages, and Z' >0.5. RC50 was estimated using a four-parameter fit (CBIS Data Analysis Suite, ChemInnovation, San Diego, CA) on normalized data.
# [5] = target: T9, P2RY2 (Homo sapiens, UniProt P41231); settings: screen, control agonist; U2OS, 37C, 2HR
# T9 construct: purchased Eurofins DiscoverX (PathHunter gpcrMAX)
# [6] = target: T10, P2RY4 (Homo sapiens, UniProt P51582); settings: screen, control agonist; CHO, 37C, 2HR
# T10 construct: purchased Eurofins DiscoverX (PathHunter gpcrMAX)
# [7] = target: CALCR-RAMP2 (Homo sapiens, UniProt O60895+P30988); settings: control agonist
# [8] = target: T2, CALCR-RAMP3; settings: screen, control agonist; CHO, RT, 2HR
# [9] = target: T3, CALCR; settings: screen, control agonist; U2OS, 37C, 2HR
# [10] = target: T4, TACR3; settings: screen, control agonist; CHO, 37C, 2HR
# [11] = target: T5, PRLHR; settings: screen, control agonist; CHO, 37C, 2HR
# [12] = target: T11, PTAFR (Homo sapiens, UniProt P25105); settings: screen, control agonist; CHO, 37C, 2HR
# T11 construct: purchased Eurofins DiscoverX (PathHunter gpcrMAX)
# [13] = target: T6, C5AR1; settings: screen, control agonist; CHO, RT, 2HR
# [14] = target: T12, C5L2 (Homo sapiens, UniProt Q9P296); settings: screen, control agonist; CHO, 37C, 2HR
# T12 construct: purchased Eurofins DiscoverX (PathHunter gpcrMAX)
# [15] = target: T13, PROKR1 (Homo sapiens, UniProt Q8TCW9); settings: screen, control agonist; CHO, 37C, 2HR
# T13 construct: purchased Eurofins DiscoverX (PathHunter gpcrMAX)
# [16] = target: T14, PROKR2 (Homo sapiens, UniProt Q8NFJ6); settings: screen, control agonist; CHO, 37C, 2HR
# T14 construct: purchased Eurofins DiscoverX (PathHunter gpcrMAX)
# T14 sequence (Q8NFJ6 whole entry): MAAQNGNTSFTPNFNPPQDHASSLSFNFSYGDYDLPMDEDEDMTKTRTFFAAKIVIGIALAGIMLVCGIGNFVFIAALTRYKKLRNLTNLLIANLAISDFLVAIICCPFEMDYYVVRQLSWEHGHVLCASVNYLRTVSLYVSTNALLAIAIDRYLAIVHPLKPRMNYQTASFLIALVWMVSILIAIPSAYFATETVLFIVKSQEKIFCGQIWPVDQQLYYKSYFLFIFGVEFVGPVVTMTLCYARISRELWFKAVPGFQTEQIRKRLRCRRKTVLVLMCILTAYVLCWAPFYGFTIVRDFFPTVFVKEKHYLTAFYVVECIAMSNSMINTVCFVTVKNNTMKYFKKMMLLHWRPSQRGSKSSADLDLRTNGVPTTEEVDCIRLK
# Sequence of CALCR-RAMP2 (O60895 43-175 partner, one chain of several): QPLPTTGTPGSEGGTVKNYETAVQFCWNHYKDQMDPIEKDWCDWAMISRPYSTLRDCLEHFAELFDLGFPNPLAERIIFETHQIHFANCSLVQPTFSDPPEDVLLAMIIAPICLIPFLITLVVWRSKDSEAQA
# Sequence of P2RY6 (Q15077 whole entry): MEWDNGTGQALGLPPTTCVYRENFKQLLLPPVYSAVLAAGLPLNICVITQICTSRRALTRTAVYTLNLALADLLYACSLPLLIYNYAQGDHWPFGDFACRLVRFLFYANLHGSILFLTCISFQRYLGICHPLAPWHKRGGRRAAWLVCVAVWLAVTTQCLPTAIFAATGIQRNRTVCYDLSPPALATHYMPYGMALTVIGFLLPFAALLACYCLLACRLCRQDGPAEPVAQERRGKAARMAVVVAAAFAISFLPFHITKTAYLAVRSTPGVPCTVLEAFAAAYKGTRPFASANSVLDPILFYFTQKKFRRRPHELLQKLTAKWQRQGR
# T12 sequence (Q9P296 whole entry): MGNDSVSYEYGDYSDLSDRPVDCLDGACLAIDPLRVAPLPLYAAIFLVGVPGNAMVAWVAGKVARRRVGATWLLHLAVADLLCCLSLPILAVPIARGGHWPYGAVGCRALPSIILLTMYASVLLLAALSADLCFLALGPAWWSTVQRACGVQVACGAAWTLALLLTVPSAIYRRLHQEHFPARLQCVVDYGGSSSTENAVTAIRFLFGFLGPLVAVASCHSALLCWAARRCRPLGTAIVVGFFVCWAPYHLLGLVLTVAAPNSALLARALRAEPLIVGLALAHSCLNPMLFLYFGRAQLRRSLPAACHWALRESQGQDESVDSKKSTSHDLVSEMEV
# T8 sequence (P49190 25-550): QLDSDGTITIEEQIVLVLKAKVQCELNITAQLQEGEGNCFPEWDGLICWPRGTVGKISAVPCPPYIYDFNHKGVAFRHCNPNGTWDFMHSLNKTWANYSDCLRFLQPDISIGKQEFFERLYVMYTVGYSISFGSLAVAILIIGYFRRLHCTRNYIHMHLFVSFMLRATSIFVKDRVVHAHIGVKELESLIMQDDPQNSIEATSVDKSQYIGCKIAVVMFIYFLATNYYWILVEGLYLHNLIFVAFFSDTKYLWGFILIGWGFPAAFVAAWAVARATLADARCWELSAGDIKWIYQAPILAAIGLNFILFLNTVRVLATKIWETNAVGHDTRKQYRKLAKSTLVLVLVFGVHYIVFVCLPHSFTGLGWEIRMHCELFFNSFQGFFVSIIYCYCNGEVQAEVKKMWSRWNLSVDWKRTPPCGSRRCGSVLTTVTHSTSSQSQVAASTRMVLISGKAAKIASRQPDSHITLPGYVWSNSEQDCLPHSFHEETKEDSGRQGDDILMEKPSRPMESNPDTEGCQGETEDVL
# T10 sequence (P51582 whole entry): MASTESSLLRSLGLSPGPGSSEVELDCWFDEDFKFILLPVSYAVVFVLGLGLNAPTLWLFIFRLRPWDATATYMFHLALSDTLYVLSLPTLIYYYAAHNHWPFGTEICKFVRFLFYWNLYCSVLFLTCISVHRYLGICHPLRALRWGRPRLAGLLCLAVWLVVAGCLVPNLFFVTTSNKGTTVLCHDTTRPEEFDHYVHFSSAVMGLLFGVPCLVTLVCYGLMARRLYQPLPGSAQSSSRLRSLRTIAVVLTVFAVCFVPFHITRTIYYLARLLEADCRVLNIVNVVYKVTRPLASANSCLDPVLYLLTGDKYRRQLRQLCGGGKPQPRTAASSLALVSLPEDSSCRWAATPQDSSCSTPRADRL
# T11 sequence (P25105 whole entry): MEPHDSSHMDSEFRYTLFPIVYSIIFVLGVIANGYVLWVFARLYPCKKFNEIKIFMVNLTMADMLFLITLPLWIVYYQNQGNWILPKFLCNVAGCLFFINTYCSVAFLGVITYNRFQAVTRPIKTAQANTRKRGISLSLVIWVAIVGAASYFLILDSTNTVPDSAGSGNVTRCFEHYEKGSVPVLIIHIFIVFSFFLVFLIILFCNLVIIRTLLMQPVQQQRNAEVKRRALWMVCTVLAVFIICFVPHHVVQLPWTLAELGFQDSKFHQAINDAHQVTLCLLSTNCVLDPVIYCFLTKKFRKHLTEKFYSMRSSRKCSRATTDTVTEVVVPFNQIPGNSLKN
# T9 sequence (P41231 whole entry): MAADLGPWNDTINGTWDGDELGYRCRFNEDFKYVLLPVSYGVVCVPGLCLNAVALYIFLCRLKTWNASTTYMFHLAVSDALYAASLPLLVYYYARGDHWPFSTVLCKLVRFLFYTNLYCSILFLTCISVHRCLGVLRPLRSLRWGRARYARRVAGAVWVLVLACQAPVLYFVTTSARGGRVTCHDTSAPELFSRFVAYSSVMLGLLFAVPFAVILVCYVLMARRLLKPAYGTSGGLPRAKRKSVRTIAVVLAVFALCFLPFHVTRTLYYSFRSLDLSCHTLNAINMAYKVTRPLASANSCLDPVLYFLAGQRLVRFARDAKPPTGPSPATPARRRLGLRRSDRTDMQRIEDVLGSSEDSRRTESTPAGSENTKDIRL
# T7 sequence (P21731 whole entry): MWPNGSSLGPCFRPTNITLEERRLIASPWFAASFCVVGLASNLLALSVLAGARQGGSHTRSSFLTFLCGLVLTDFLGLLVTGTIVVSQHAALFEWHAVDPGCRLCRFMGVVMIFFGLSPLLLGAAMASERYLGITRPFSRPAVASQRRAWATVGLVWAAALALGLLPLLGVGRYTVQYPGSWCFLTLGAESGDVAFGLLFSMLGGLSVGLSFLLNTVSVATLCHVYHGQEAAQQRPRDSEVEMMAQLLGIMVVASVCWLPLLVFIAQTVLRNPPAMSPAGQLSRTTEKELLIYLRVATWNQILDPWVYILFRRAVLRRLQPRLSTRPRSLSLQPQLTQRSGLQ
# T13 sequence (Q8TCW9 whole entry): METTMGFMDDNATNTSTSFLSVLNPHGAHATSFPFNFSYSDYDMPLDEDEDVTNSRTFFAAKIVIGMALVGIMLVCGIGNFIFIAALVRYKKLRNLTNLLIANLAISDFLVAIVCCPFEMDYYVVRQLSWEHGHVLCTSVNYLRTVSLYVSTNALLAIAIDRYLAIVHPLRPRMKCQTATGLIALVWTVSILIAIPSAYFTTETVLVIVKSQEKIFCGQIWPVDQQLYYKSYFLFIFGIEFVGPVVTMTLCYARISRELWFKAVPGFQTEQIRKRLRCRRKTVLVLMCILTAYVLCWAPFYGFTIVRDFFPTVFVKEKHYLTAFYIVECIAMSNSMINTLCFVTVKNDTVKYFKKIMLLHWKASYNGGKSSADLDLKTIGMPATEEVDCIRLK
molecule,measurement,setting,value
Relaxin-3,EC80,[1],62.7 nM
O=C(O)CCC/C=C\C[C@@H]1[C@@H](/C=C/[C@@H](O)COc2ccc(I)cc2)[C@H]2CC[C@@H]1O2 [I-BOP],EC80,[2],29.1 nM
TIP-39,EC80,[3],4.8 nM
O=c1ccn([C@@H]2O[C@H](COP(=O)(O)OP(=O)(O)OP(=O)(O)O)[C@@H](O)[C@H]2O)c(=O)[nH]1 [UTP],EC80,[4],225 nM
same,EC80,[5],2580 nM
same,EC80,[6],930 nM
Calcitonin,EC80,[7]; follow-up concentration-response assays,35 nM
same,EC80,"[7]; screen, CHO, 37C, 2HR",30.5 nM
same,EC80,[8],1150 nM
same,EC80,[9],37.7 nM
Substance P,EC80,[10],80.4 nM
PrRP-31,EC80,[11],1.8 nM
CCCCCCCCCCCCCCCCOC[C@H](COP(=O)([O-])OCC[N+](C)(C)C)OC(C)=O [PAF],EC80,[12],19 nM
B1,EC80,[13],3.6 nM
same,EC80,[14],2.7 nM
B2,EC80,[15],53.3 nM
same,EC80,[16],30.2 nM
